Target: EpCAM (Epithelial Cell Adhesion Molecule) (UniProt P16422)
Assay: binding to EpCAM-expressing cells; method not stated

Sequence of EpCAM (Epithelial Cell Adhesion Molecule) (P16422 24-314 limits assumed): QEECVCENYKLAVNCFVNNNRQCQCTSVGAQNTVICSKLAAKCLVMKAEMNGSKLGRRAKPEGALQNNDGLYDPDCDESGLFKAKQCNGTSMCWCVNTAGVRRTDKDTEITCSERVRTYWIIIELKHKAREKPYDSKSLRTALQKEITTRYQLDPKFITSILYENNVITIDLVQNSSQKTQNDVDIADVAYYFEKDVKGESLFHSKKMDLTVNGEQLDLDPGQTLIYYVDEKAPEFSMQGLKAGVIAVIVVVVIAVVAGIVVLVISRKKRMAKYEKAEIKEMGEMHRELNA

## HEA125 antibody
  Kd: 2.2 nM

From patent US20180044681A1
